Measured values as given in the DeepSol protein solubility set.

Test: soluble on expression in E. coli; label from the status in PepcDB or PDB records
With “MERTVVETRYGRLRGEMNEGVFVWKGIPYAKAPVGERRFLPPEPPDAWDGVREATSFGPVVMQPSDPIFSGLLGRMSEAPSEDGLYLNIWSPAADGKKRPVLFWIHGGAFLFGSGSSPWYDGTAFAKHGDVVVVTINYRMNVFGFLHLGDSFGEAYAQAGNLGILDQVAALRWVKENIAAFGGDPDNITIFGESAGAASVGVLLSLPEASGLFRRAMLQSGSGSLLLRSPETAMAMTERILDKAGIRPGDRERLLSIPAEELLRAALSLGPGVMYGPVVDGRVLRRHPIEALRYGAASGIPILIGVTKDEYNLFTLTDPSWTKLGEKELLDRINREVGPVPEEAIRYYKETAEPSAPTWQTWLRIMTYRVFVEGMLRTADAQAAQGADVYMYRFDYETPVFGGQLKAAHALELPFVFHNLHQPGVANFVGNRPEREAIANEMHYAWLSFARTGDPNGAHLPEAWPAYTNERKAAFVFSAASHVEDDPFGRERAAWQGR” the “soluble on expression in E. coli” value was “soluble”. In the case of “MSLTPRDHTLILIDYQSQMAFATHSIDIPTLRNNAGLVASAAAGFGVSAILTTVAEKSFSGPMFDEVTAPFPDLRMLDRTSMNTWEDAAVIDRVNQIGKGRIVLAGLWTSVCIVGPALSALDQGFEVYVIADACGDISAEAHERAMQRMVQAGARPITSLQYLLELQRDWARTDTYELTTGIAAKLGGGYGLGIRYAKTMFGGHEGHHHHHH”, the “soluble on expression in E. coli” value is reported as “soluble”. For “MVEKHLLEFLEKLQFLISKNVKISHYGIENVKKICGVDIAYKGNLGFSVGVSMDINSGDYNYKSYVGEVNFPYIPGFLFMREAPLMIKAIEGLDCHLLLVDGHGIAHPRKSGIAAVIGVLLDFPTIGVAKSRLTGDLVNESEITYVYLNGEKVGVKFGRYFYSPGNKVDLQDCIELGKRGYPKVLKIADMLTKKIKKE”, the “soluble on expression in E. coli” value was “soluble”. In the case of “GAMGSGGGGEHQHGEEMMAAVPAPDAEGAAGFDEFPIGEDRDVGPLHVGGVYFQPVEMHPAPGAQPSKEEADCHIEADIHANEAGKDLGYGVGDFVPYLRVVAFLQKHGSEKVQKVMFAPMNAGDGPHYGANVKFEEGLGTYKVRFEIAAPSHDEYSLHIDEQTGVSGRFWSEPLVAEWDDFEWKGPQW”, the “soluble on expression in E. coli” value is reported as “soluble”. With “MGSDKIHHHHHHMHYQFFATCPRGLEPLLEDELNSIRARQIKPTDGGVGFAGDMLLCYRANLESRIATRILLQVGKGRYSNEDELYQGAYKIDWVQWFEVEQDFMVKVTGVRCPLKSLEFATLRIKDAICDRFREEVGSRPSIDTREPDVRVHAYLGAEEYQLYVDTSGNALYQRGLRRASIEAPLRENLAAGILKLSGWQPGTPLLDPMCGSGTFLLEAAMISLDIAPGSNRSFGFERLKNFNAGAWQSLLKQAKSRAKPVAFQGIYGSDADLRAVRITRKNLEQAGLLDAMQVAHREFTDVVPPAAEGILVANPPYGVRIGEDEELAALYPKMGEALKKKFAGWNAYFLTNDMRLPKLMRLSPTKRTPLFNGPLECRVFEIKMVAGSNRKEKSND” the “soluble on expression in E. coli” value was “not soluble”. For “MELACHECGFKGEVQDFAFLCKNGCPACGESDMRQCPRCGAHVMFSRAAALEKEEMQMRDLCRELAGIERSDKPEVQKRAMELIGGLRRMNERWNIPQLGDFIKQRSRELFF”, the “soluble on expression in E. coli” value was “not soluble”. With “NIITVTLNMERHHFLGISIVGQSNDRGDGGIYIGSIMKGGAVAADGRIEPGDMLLQVNDVNFENMSNDDAVRVLREIVSQTGPISLTVAK” the “soluble on expression in E. coli” value was “soluble”. In the case of “MKYRVETNPFSKDRYNPEQLEMFKNRQLSKDKAEVFFTRLYNQHIAWVIIANVMTEYVIKFRKSATSFEEAWDALDYQRTTEIVFRAVNGLPCSEKDSGELETYLSEEQHEKH”, the “soluble on expression in E. coli” value is reported as “not soluble”. For “MVGLADVAVLYSGGKDSNYALYWAIKNRFSVKFLVTMVSENEESYMYHTINANLTDLQARALGIPLVKGFTQGEKEKEVEDLKRVLSGLKIQGIVAGALASKYQRKRIEKVAKELGLEVYTPAWGRDAKEYMRELLNLGFKIMVVGVSAYGLDESWLGRILDESALEELITLNEKYKVHVAGEGGEFETFVLDMPLFKYKIVVDKAKKVWEPCTSSGKLIIEEAHLESKLEHHHHHH”, the “soluble on expression in E. coli” value was “soluble”. With “MAHHHHHHMGTLEAQTQGPGSMLTYFHPDQSLHHPRTYFSRGRMRMPQEVPERAARLVAAAFAMGFPVREPDDFGIAPIAAVHDTHYLRFLETVHREWKAMPEDWGDEAMSNIFVREPNALRGVLAQAARHLADGSCPVGEHTWRAAYWSAQSALAAAAAVRDGAPAAYALCRPPGHHARVDAAGGFCYLNNAAIAAQALRARHARVAVLDTDMHHGQGIQEIFYARRDVLYVSIHGDPTNFYPAVAGFDDERGAGEGLGYNVNLPMPHGSSEAAFFERVDDALRELRRFAPDALVLSLGFDVYRDDPQSQVAVTTDGFGRLGHLIGALRLPTVIVQEGGYHIESLEANARSFFGGFGALRG” the “soluble on expression in E. coli” value was “soluble”. With “SETILEQQRRYHEEKERLMDVMAKEMLTKKSTLRDQINSDHRTRAMQDRYMEVSGNLRDLYDDKDGLRKEELNAISGPNEFAEFYNRLKQIKEFHRKHPNEICVPMSVEFEELLKARENPSEEAQNLVEFTDEEGYGRYLDLHDCYLKYINLKASEKLDYITYLSIFDQLFDIPKERKNAEYKRYLEMLLEYLQDYTDRVKPLQDQNELFGKIQAEFEKKWENGTFPGWPKETSSALTHAGAHLDLSAFSSWEELASLGLDRLKSALLALGLKCGGTLEERAQRLFSTKGKSLESLDTSLFAKNPKSKGTKRDTERNKDIAFLEAQIYEYVEILGEQRHLTHENVQRKQARTGEEREEEEEEQISESESEDEENEIIYNPKNLPLGWDGKPIPYWLYKLHGLNINYNCEICGNYTYRGPKAFQRHFAEWRHAHGMRCLGIPNTAHFANVTQIEDAVSLWAKLKLQKASERWQPDTEEEYEDSSGNVVNKKTYEDLKRQGLL” the “soluble on expression in E. coli” value was “soluble”. For “MAHHHHHHMRNSLRLRLSSTSSSLLRSTFWLRQCGSGGCGFSGGPGGYPTDADALAKILTQAKKGSFNGSSSSPSDFFDGRFVGGSPTMDPAMLQDMHQKLNQSLTPEVRESMKAMMESIQRGDGMPQMGMMAFGVGENEKGKKVARGAKLMFDPSTGKLSKDFVEKQLEDDDPVLPKETVGDYNTEGAIEVEFEEDARKEASVRENIPEAEVIVEEVPREK”, the “soluble on expression in E. coli” value was “not soluble”. In the case of “MKNERIEKLQESWELDTRWKGITRPYSAEDVIRLRGSIDIEHTLARRGAEKLWASLHTEDYINALGALTGNQAMQQVKAGLKAIYLSGWQVAADANLSGHMYPDQSLYPANSVPAVVKRINQTLQRADQIQHMEGSGDTDYFVPIVADAEAGFGGQLNVFELMKGMIEAGASGVHFEDQLSSEKKCGHLGGKVLLPTQTAVRNLISARLAADVMGVPTIIVARTDADAADLITSDIDPVDKAFITGERTPEGFYRTKAGLDQAIARGLAYAPYADLVWCETSEPNLEDAKRFADAIHKEHPGKLLAYNCSPSFNWKQKLDEKTIASFQKEIASYGYKFQFVTLAGFHSLNYGMFELARGYKERGMAAYSELQQAEFAAEKHGYSATRHQREVGTGYFDEVAQVITGGTSSTTALKGSTEEAQFTK”, the “soluble on expression in E. coli” value is reported as “not soluble”. With “MEHKIVHVGDIPVANDKPFTLFAGMNVLESRDLAMQICEHYVKVTDKLGIPYVFKASFDKANRSSVHSYRGPGLEEGMKIFQELKETFGVKIITDVHTEAQAQPVADVVDVIQLPAFLARQTDLVEAMAKTGAVINVKKPQFMSPGQVGNIVEKFAECGNDKVILCERGSCHGYDNLVVDMLGFGVMKQASNGSPIIFDVTHSLQMRDPSGAASGGRREQTVELAKAGLATGIAGLFIEAHPNPDKARCDGPSALPLDKLEPFLAQMKALDDLIKSFAHIDIR” the “soluble on expression in E. coli” value was “not soluble”. With “MGSDKIHHHHHHMLASDLLVIDFAQKDDVLKLYPEAPLLSSDKAQWDGIQLQYHRHPPHQLSENHSKQHRIIIHDRSPSPPMVEEMIEHRFQKRQFGYGDVTVVPADVLNSAYWNTEYEFITLSFEARTFARHTFDLTTATDIELVPSFSKPDQLIYSLGFALKSELESSGVGSRLYIDSLTAALMTHLLRHYSAQRSISRPQSGLAKCQLQKVIDFINQNLEQDLALAELAAIVQMSPSYFSTLFKHSTGLAPHQYVIQCRVDRAKQLLRQSNLTIAEIAYSLGFTHQSHLSRHFKRLVGVSPKVFIKSQ” the “soluble on expression in E. coli” value was “not soluble”. In the case of “MTRQMILAVGQQGPIARAETREQVVGRLLDMLTNAASRGVNFIVFPELALTTFFPRWHFTDEAELDSFYETEMPGPVVRPLFETAAELGIGFNLGYAELVVEGGVKRRFNTSILVDKSGKIVGKYRKIHLPGHKEYEAYRPFQHLEKRYFEPGDLGFPVYDVDAAKMGMFICNDRRWPETWRVMGLKGAEIICGGYNTPTHNPPVPQHDHLTSFHHLLSMQAGSYQNGAWSAAAGKVGMEEGCMLLGHSCIVAPTGEIVALTTTLEDEVITAALDLDRCRELREHIFNFKAHRQPQHYGLICEF”, the “soluble on expression in E. coli” value is reported as “soluble”. With “MDVVKEIMAAIKQYETIIIHRHQRPDPDAIGSQVGLAELLRASFPEKNIYQVGGPVEGLEFLAEMDVITDDVYRGALVIVTDTANAPRISDARFSLGDQLIKIDHHPNDEPYGDLVWVNTNASSCSEIIVDFWQQHLAELTMTDNAARLLYAGIVGDTGRFLYPSTSAHTLAVAAQLRTFNFNAADLNRELDQMPLKVAKLAGYIYQNLEIDANGAARVVLPQSILNSYDIVDSETAAIVSMPGKIEDVLSWAIFVEQPEGYYRVRLRSKGPIINTIAKKHHGGGHPLASGANARDAAEIEVIYQEIQAACQEWAQK” the “soluble on expression in E. coli” value was “not soluble”. In the case of “GPGSMWGRYVRVCTREQHSRKQLTSAGVPQGGVPGPKLFLHCVDDLLHRMDNIYSASAFMHADDLKLVASGADIHACAAAMQPALPLITKWAAEHSLKINVAKSESALFHISSHTRSDEDMVDLLPGNGNLRIQSCPVRLLDTTFDRLLNFGPHASTAAKRTMPRRYQLRPVAQAGASHHNTQSFSIGYVHIVLFHNGDAILPCFAHIYLHNMEVRYRDGRKTFLA”, the “soluble on expression in E. coli” value is reported as “not soluble”. For “MIITDVEVRVFRTTTRRHSDSAGHAHPGPAHQVEQAMLTVRTEDGQEGHSFTAPEIVRPHVIEKFVKKVLIGEDHRDRERLWQDLAHWQRGSAAQLTDRTLAVVDCALWDLAGRSLGQPVYKLIGGYRDKVLAYGSIMCGDELEGGLATPEDYGRFAETLVKRGYKGIKLHTWMPPVSWAPDVKMDLKACAAVREAVGPDIRLMIDAFHWYSRTDALALGRGLEKLGFDWIEEPMDEQSLSSYKWLSDNLDIPVVGPESAAGKHWHRAEWIKAGACDILRTGVNDVGGITPALKTMHLAEAFGMECEVHGNTAMNLHVVAATKNCRWYERGLLHPFLEYDDGHDYLKSLSDPMDRDGFVHVPDRPGLGEDIDFTFIDNNRVR”, the “soluble on expression in E. coli” value was “soluble”. With “MGSDKIHHHHHHMSEKLWEKGYKVNEEVEKFTVGDDYITDMKIIEYDIKASIVHSRMLHKIGLLSAEEQKKIEEALSELLNLVKEGKFQIKPEEEDCHTAIENFLVKKLGEIGKKIHTARSRNDQVLTALRLMYKEELKEIENLIRELQKSLERFIEKFGDVKFPGYTHTRKAMPTDFATWAGALKDALEDDLKLLKTAYEIVDQSPLGTGAGYGVPIDIDREFTAKELGFSKVQWNPIYTQNSRGKFEYLILHTLSQISYDLNRFASDIIFFSLPEIGYLKLPKELCTGSSIMPHKINPDPLELVRAHHHTIVSKMLMAVTLPSNLIFGYHRDFQLLKKPVIEAFEVVKNIVRIMKIIFDHLEVDKERSESSITEEVLATHRVYELVKQGVPFRDAYRMVAEKYGREKD” the “soluble on expression in E. coli” value was “not soluble”. With “RMTVWQLDLQKRLVQVDGDVARLIGLSHVPPELPVAVFENYVDPEDLPLLRAAEAAALRGEPMQVELRLVLESGGRRWLRLMGEPRPDA” the “soluble on expression in E. coli” value was “not soluble”.
